Results on 2 substances are retold here after patent publication EP2161338A1.

The target of test [1] is DNAX Leukocyte Associated Immunoglobulin-like Receptor (DLAIR-1), the DX26 antigen, product of the YE01 gene (human) (UniProt Q6GTX8). Nature of the test: flow cytometry on CEM T cell tumor cells, PE goat-anti-mouse-IgG second step. (In general: Flow cytometry measures light scatter and fluorescence of single cells or particles in a stream.)
Test [2] shares this target. Nature of the test: flow cytometry on Peer T cell tumor cells, PE goat-anti-mouse-IgG second step.
For test [3] the target is unchanged. Nature of the test: flow cytometry on HUT78 T cell tumor cells, PE goat-anti-mouse-IgG second step.
The target is the same in test [4]. Briefly: flow cytometry on Molt4 T cell tumor cells, PE goat-anti-mouse-IgG second step.
Test [5] has the same target. Nature of the test: flow cytometry on U937 myeloid tumor cells, PE goat-anti-mouse-IgG second step.
Test [6] has the same target. Briefly: flow cytometry on Jurkat T cell tumor cells, PE goat-anti-mouse-IgG second step.
For test [7] the target is unchanged. Nature of the test: flow cytometry on HL60 promyeloid tumor cells, PE goat-anti-mouse-IgG second step.
For test [8] the target is unchanged. Briefly: flow cytometry on CEM T cell tumor cells (DLAIR-positive), PE goat-anti-mouse-IgG second step.
The target is the same in test [9]. Briefly: flow cytometry on Peer T cell tumor cells (DLAIR-positive), PE goat-anti-mouse-IgG second step.
For test [10] the target is unchanged. Briefly: flow cytometry on Molt4 T cell tumor cells (DLAIR-positive), PE goat-anti-mouse-IgG second step.
Test [11] shares this target. Briefly: flow cytometry on U937 myeloid tumor cells (DLAIR-positive), PE goat-anti-mouse-IgG second step.
The target is the same in test [12]. Nature of the test: flow cytometry on Jurkat T cell tumor cells (DLAIR-positive), PE goat-anti-mouse-IgG second step.
The target is the same in test [13]. Nature of the test: flow cytometry on HL60 promyeloid tumor cells (DLAIR-positive), PE goat-anti-mouse-IgG second step.

Take DX26 monoclonal antibody: the mean fluorescence intensity (mean fluorescence intensity) in test [1] came to 92.7; in [2] it was 29.1; in test [3] it was 25.8; in [4] it was 30.7; in test [5], 49.5; in [6], 47.1. This substance came in with a mean fluorescence intensity (mean fluorescence intensity) in test [7] of 46.9.

Turning to control IgG1 (antibody), the mean fluorescence intensity (mean fluorescence intensity) in test [8], in [9], in test [10], in [11], in test [12] and in test [13] was less than 5 each time.
